The values that follow come from US20030216563A1 (Scripps Research, published 2003).

For assay [1], the target named is T1, Weel (Schizosaccharomyces pombe, UniProt P07527 1-877).
T1 construct: Endogenous protein co-purified from S. pombe cells and detected with antibodies to Weel; also called kinase Weel; native Weel protein
T1 sequence (looked up): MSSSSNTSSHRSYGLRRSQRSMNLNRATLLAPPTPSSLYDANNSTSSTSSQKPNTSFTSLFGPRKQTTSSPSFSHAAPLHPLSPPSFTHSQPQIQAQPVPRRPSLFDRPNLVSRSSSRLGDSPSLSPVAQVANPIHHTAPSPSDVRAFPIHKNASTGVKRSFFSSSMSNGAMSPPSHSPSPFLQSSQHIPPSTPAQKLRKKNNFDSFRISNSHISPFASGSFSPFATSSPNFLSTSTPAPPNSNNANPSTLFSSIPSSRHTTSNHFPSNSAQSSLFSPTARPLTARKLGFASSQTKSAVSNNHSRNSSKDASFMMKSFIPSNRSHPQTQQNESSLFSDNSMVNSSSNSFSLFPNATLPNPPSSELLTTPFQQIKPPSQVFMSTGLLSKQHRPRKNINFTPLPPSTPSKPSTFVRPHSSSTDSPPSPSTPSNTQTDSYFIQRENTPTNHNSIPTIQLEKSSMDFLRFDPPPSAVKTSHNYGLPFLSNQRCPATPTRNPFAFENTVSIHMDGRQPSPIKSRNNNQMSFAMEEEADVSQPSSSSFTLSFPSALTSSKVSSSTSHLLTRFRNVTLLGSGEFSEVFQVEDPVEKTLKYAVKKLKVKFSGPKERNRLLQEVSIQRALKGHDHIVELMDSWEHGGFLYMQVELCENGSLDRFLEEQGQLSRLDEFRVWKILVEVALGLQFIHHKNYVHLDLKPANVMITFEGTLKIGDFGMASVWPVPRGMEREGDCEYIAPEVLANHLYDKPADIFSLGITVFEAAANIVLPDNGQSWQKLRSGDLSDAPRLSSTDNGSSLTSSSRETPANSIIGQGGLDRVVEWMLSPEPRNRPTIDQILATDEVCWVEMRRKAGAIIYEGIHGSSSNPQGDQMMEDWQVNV
Put plainly: GSH-Sepharose purification of GST fusion expressed in S. pombe, immunoblot with antibodies to Weel. As to the method:
(§1) FIG. 2D is a photograph of an analysis of proteins which illustrates that Weel interacts with GST:cds1⁺ but not GST:Chk1 in vivo. Strains carrying integrated nmt1:GST:chk1⁺ or nmt1:GST:cds1⁺ constructs were grown in minimal medium (EMM2) without thiamine at 30° C. for 16 hr to induce expression of GST fusion proteins. Cells were lysed and GST fusion proteins purified with GSH-Sepharose. After extensive washing, samples were resolved by 10% SDS-polyacrylamide gel electrophoresis and subjected to immunoblotting with antibodies to Weel, Cdc25 and GST. A ˜110 kDa protein corresponding to Weel was detected in the GST:Cds1 sample, whereas a ˜80 kDa protein corresponding to Cdc25 was detected in the GST:Chk1 sample. The ˜110 kDa protein was not detected in samples prepared from Δweel cells. GST:Cds1 and GST:Chk1 migrate at positions corresponding to ˜82 and ˜80 kDa, respectively.
(§2) As a control, a strain that expressed GST:Chk1 was used. The GST fusion proteins were purified with GSH-Sepharose and analyzed by immunoblotting. Cdc25 (but not Weel) associated with GST:Chk1, whereas Weel (but not Cdc25) associated with GST:Cds1 (FIG. 2D).

Assay [2] addresses T2, Cdc25 (Schizosaccharomyces pombe, UniProt P06652 1-596).
T2 construct: Endogenous protein co-purified from S. pombe cells and detected with antibodies to Cdc25
T2 sequence (looked up): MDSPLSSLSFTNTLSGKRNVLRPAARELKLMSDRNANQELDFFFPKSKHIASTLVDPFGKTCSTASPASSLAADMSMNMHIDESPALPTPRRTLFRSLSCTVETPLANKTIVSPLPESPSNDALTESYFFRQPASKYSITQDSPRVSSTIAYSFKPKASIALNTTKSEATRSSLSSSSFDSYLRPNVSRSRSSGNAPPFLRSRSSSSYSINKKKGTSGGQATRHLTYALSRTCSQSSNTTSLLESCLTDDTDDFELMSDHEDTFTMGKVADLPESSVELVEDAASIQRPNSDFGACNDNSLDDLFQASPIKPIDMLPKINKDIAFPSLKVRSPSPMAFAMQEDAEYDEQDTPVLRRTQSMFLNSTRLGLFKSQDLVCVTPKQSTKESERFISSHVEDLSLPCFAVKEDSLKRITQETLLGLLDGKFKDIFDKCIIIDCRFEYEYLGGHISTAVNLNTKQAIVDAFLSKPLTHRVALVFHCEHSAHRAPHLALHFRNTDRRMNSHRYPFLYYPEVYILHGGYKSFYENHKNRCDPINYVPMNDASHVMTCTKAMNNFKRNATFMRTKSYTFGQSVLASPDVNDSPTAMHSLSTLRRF
Put plainly: GSH-Sepharose purification of GST fusion expressed in S. pombe, immunoblot. As to the method:
as §1, §2
A general note: A western blot detects proteins with antibodies after separation by electrophoresis.

The target in assay [3] is T2, Cdc25. Put plainly: GSH-Sepharose purification of GST fusion expressed in S. pombe, immunoblot with antibodies to Cdc25. As to the method:
as §1, §2

The target of assay [4] is T1, Weel. Put plainly: GSH-Sepharose purification of GST fusion expressed in S. pombe, immunoblot. As to the method:
as §1, §2

B1: GST:Chk1 (other, Schizosaccharomyces pombe, UniProt P34208 1-496, looked up)
chain: MAQKLDNFPYHIGREIGTGAFASVRLCYDDNAKIYAVKFVNKKHATSCMNAGVWARRMASEIQLHKLCNGHKNIIHFYNTAENPQWRWVVLEFAQGGDLFDKIEPDVGIDEDVAQFYFAQLMEGISFMHSKGVAHRDLKPENILLDYNGNLKISDFGFASLFSYKGKSRLLNSPVGSPPYAAPEITQQYDGSKVDVWSCGIILFALLLGNTPWDEAISNTGDYLLYKKQCERPSYHPWNLLSPGAYSIITGMLRSDPFKRYSVKHVVQHPWLTSSTPFRTKNGNCADPVALASRLMLKLRIDLDKPRLASSRASQNDSGFSMTQPAFKKNDQKELDRVEVYGALSQPVQLNKNIDVTEILEKDPSLSQFCENEGFIKRLAKKAKNFYEICPPERLTRFYSRASRETIIDHLYDSLRLLAISVTMKYVRNQTILYVNLHDKRKCLLQGVIELTNLGHNLELINFIKRNGDPLEWRKFFKNVVSSIGKPIVLTDVSQN
notes: Expressed in S. pombe from the integrated nmt1:GST:chk1+ construct; Migrates at ~80 kDa; not shown: glutathione-S-transferase
Turning to B1, the figures for the binding result in assay [1] and in assay [2] were “no binding” and “binds”, respectively.

B2: GST:Cds1 (other, Schizosaccharomyces pombe, UniProt Q09170 1-460, looked up)
chain: MEEPEEATQATQEAPLHVSQNIAKQVVNNENVFMKLVMTRMLDGKTEVIPLTTDVHNGFWRFGRHKSCEVVLNGPRVSNFHFEIYQGHRNDSDESENVVFLHDHSSNGTFLNFERLAKNSRTILSNGDEIRIGLGVPKDEISFLCQVPVKHSRDSQKNMIKSENSHYEIIRTLGSGTFAVVKLAVEVNSGKWYAIKIINKRKILLTSSEKRATEMFQREIDILKSLHHPGVVQCHEIFENDDELFIVMEYVEGGDLMDFLIANGSIDEQDCKPLLKQLLETLLHLHKQGVTHRDIKPENILITNDFHLKISDFGLAKVIHGTGTFLETFCGTMGYLAPEVLKSKNVNLDGGYDDKVDIWSLGCVLYVMLTASIPFASSSQAKCIELISKGAYPIEPLLENEISEEGIDLINRMLEINPEKRISESEALQHPWFYTVSTHEHRTPPSSSEHEATEQLNSSS
notes: Expressed in S. pombe from the integrated nmt1:GST:cds1+ construct; Migrates at ~82 kDa; not shown: glutathione-S-transferase
On to B2, for which the values for the binding result in assay [3] and in assay [4] were “no binding” and “binds”, respectively.
